Assay results as given in patent US20080181886A1 (Genentech, published 2008).

T1: TRX-APRIL (mouse, UniProt Q9D777 104-241)
T1 construct: Named only as TRX-APRIL
T1 sequence (looked up): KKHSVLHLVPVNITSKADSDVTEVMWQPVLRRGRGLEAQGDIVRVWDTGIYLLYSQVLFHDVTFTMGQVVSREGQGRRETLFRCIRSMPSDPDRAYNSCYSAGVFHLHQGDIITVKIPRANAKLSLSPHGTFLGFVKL

T2: Murine APRIL (mouse, UniProt Q9D777 105-241, limits assumed)
T2 sequence (looked up): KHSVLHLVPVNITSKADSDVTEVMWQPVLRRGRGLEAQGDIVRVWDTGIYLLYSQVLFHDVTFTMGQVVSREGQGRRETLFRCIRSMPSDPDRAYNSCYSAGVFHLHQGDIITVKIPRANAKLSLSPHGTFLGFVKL


Columns and labels:
[1] = target: T1, TRX-APRIL; assay: SPR competition: ligand in solution against immobilized BCMA-Fc
Experimental: (§2) Surface plasmon resonance (SPR) measurements on a BIAcore 3000 instrument (Pharmacia Biosensor) were used to measure binding affinities of receptors to immobilized APRIL and BAFF by competition binding. […] In all experiments flow cell 1 was ethanolamine-blocked and used as the reference cell. Washing with 10 mM HCl regenerated flow cells between sample injections. […] The concentration of ligand that provided a slope of about 1 for the initial on-rate of the observed sensorgrams was selected as the fixed concentration to be used in the competition experiments. In all experiments where BAFE was the ligand, the buffer used was composed of 10 mM HEPES, pH 7.2, 150 mM NaCl, and 0.005% Tween-20. In all experiments where TRX-APRIL was the ligand selected, the buffer was composed of 20 mM Tris-HCl, pH 8.0, 200 mM NaCl, and 0.005% Tween-20. […] A linear fit of the initial on-rate of the observed sensorgrams was used to calculate the binding rate (V). The IC₅₀ values were calculated using a four-parameter curve fit (y=((m1−m4)/(1+(m0/m3)̂m2))+m4) of the initial binding rates for the receptor/control (Vᵢ/Vₒ) as a function of receptor concentration.

[2] = target: T3, human BAFF (human, UniProt Q9Y275 82-285, limits assumed); assay: as above
T3 sequence (Q9Y275 82-285 limits assumed): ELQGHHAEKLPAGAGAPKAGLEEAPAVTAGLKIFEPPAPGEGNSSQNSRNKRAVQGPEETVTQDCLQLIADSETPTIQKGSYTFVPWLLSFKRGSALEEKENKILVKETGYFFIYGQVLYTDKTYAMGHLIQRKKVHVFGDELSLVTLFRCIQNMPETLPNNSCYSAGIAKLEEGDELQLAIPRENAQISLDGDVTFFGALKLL
Experimental: as §2

[3] = target: T2, Murine APRIL; assay: NNS library, phage display;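 note: ligand versus display occurrence-to-degeneracy ratio and higher means enriched by binding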
Experimental: (§1) This new phage library was subjected to sorting against either BAFF, APRIL or the display target antibody. After 3 rounds of sorting, approximately 48 clones were picked from each selection and the DNA sequences of the phage clones were determined. […] The normalized F′ value corrects for display bias and is calculated as the percent occurrence to percent degeneracy ratio for ligand selection divided by the percent occurrence to percent degeneracy ratio for display efficiency. Percent occurrence is calculated by dividing the number of times a particular amino acid appeared at a particular position by the total number of amino acids sequenced at that position followed by multiplying by 100. Percent degeneracy is calculated by dividing the degeneracy in code for a particular amino acid divided by the total degeneracy possible at that position followed by multiplying by 100 (e.g., if only A, G and I were selected, total degeneracy possible would be 5).

[4] = target: T3, human BAFF; assay: NNS library, phage display;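 note: ligand versus display occurrence-to-degeneracy ratio and higher means enriched by binding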
Experimental: as §1

[5] = target: T2, Murine APRIL; assay: shotgun scan, phage display
[6] = target: T3, human BAFF; assay: shotgun scan, phage display

Binder | IC50 [1] | IC50 [2] | F' APRIL [3] | F' BAFF [4] | F (APRIL) [5] | F (BAFF) [6]
GSPWSLSCRKEQGKFYDHLLRDCISCASICGQHPKQCAYFCENKLR (receptor, E. coli, cleaved from TRX-His fusion; residue numbers are those of native human TACI (293 aa); also called TACI CRD2) [TACI_d2 (second cysteine-rich domain, CRD2, residues 68-109 of human TACI)] | 6 nM | 2 nM | – | – | – | –
SLSCRKEQGKAYDHLLRDCISCASICGQHPKQCAYFCENKLR (receptor, phage library variant, format as m9) [TACI_d2 F78A] | – | – | 0 | 0 | 29 | 1.1
SLSCRKEAGKFYDHLLRDCISCASICGQHPKQCAYFCENKLR (receptor, phage library variant, format as m9) [TACI_d2 Q75A] | – | – | – | – | 1.4 | 0.9
SLSCRKEQGKFYDHLLRDCISCASVCGQHPKQCAYFCENKLR (receptor, phage library variant, format as m9) [TACI_d2 I92V] | – | – | 6 | 9 | 3.3 | 0.5
SLSCRKEEGKFYDHLLRDCISCASICGQHPKQCAYFCENKLR (receptor, phage library variant, format as m9) [TACI_d2 Q75E] | – | – | – | – | 0.7 | 0.7
SLSCRKEQGKFYDHLLRDCVSCASICGQHPKQCAYFCENKLR (receptor, phage library variant, format as m9) [TACI_d2 I87V] | – | – | – | – | 1.4 | 1.1
SLSCRKEQGKFYDHLLRDCISCASICGQHPKQCAYFCEAKLR (receptor, phage library variant, format as m9) [TACI_d2 N106A] | – | – | – | – | 1.2 | 0.9
SLSCRKEQGKFYDHLLRDCISCASICGQHPKQCAYFCENKLG (receptor, phage library variant, format as m9) [TACI_d2 R109G] | – | – | – | – | 1.2 | 1.2
SLSCRKEQGKVYDHLLRDCISCASICGQHPKQCAYFCENKLR (receptor, phage library variant, format as m9) [TACI_d2 F78V] | – | – | 1 | 1 | 5.2 | 0.8
SLSCRKEQGKFYDHLLRDCISCASICGQHPKQCADFCENKLR (receptor, phage library variant, format as m9) [TACI_d2 Y102D] | – | – | – | – | 0.8 | 0.6
SLSCRKEQGKFYDHLLRDCISCASICGQHPKQCAYFCENKAR (receptor, phage library variant, format as m9) [TACI_d2 L108A] | – | – | – | – | 1 | 1.2
SLSCRTEQGKFYDHLLRDCISCASICGQHPKQCAYFCENKLR (receptor, phage library variant, format as m9) [TACI_d2 K73T] | – | – | – | – | 5 | 8.9
SLSCRKEQGKFYDHLLRDCISCASICGQHPKQCAYFCENKLA (receptor, phage library variant, format as m9) [TACI_d2 R109A] | – | – | – | – | 1.5 | 0.9
SLSCRKEQGKFYDHALRDCISCASICGQHPKQCAYFCENKLR (receptor, phage library variant, format as m9) [TACI_d2 L82A] | – | – | – | – | > 29 | > 36
SLSCRKEQGTFYDHLLRDCISCASICGQHPKQCAYFCENKLR (receptor, phage library variant, format as m9) [TACI_d2 K77T] | – | – | – | – | 0.7 | 0.6
SLSCRKEQGEFYDHLLRDCISCASICGQHPKQCAYFCENKLR (receptor, phage library variant, format as m9) [TACI_d2 K77E] | – | – | – | – | 1.4 | 0.9
SLSCRKEQGKFYDHVLRDCISCASICGQHPKQCAYFCENKLR (receptor, phage library variant, format as m9) [TACI_d2 L82V] | – | – | – | – | > 20 | > 25

Binder | IC50 [1] | IC50 [2] | F' APRIL [3] | F' BAFF [4] | F (APRIL) [5] | F (BAFF) [6]
SLSCRKEQGKFYDHLLRDCISCASTCGQHPKQCAYFCENKLR (receptor, phage library variant, format as m9) [TACI_d2 I92T] | – | – | 3 | 7 | 6 | 0.9
SLSCRKEQGKFYDHPLRDCISCASICGQHPKQCAYFCENKLR (receptor, phage library variant, format as m9) [TACI_d2 L82P] | – | – | – | – | > 49 | > 61
SLSCRKEQGKFYDHLLRDCISCASICGQHPKQCAYFCENTLR (receptor, phage library variant, format as m9) [TACI_d2 K107T] | – | – | – | – | 1.1 | 1.1
SLSCGKEQGKFYDHLLRDCISCASICGQHPKQCAYFCENKLR (receptor, phage library variant, format as m9) [TACI_d2 R72G] | – | – | – | – | 0.6 | 0.4
SLSCRKEQGKFYDHLLRDCISCASICGQHPKQCAYFCENKLP (receptor, phage library variant, format as m9) [TACI_d2 R109P] | – | – | – | – | 1.2 | 1.2
SLSCRAEQGKFYDHLLRDCISCASICGQHPKQCAYFCENKLR (receptor, phage library variant, format as m9) [TACI_d2 K73A] | – | – | – | – | 1.6 | 2
SLSCRKEQGKFYDHLVRDCISCASICGQHPKQCAYFCENKLR (receptor, phage library variant, format as m9) [TACI_d2 L83V] | – | – | – | – | 4.8 | 1.6
SLSCRKEQGKFYDHLLRDCISCASICGQHPKECAYFCENKLR (receptor, phage library variant, format as m9) [TACI_d2 Q99E] | – | – | – | – | 1.6 | 0.8
SLSCRKEQGKFYDHLLRDCISCASICGQHPKQCAAFCENKLR (receptor, phage library variant, format as m9) [TACI_d2 Y102A] | – | – | – | – | 1.6 | 2
SLSCRKEQGKFYDHLLRDCISCASICGQHPKQCAYFCENKVR (receptor, phage library variant, format as m9) [TACI_d2 L108V] | – | – | – | – | 0.9 | 1.2
SLSCRKEQGKFYDHLLRDCISCASICGQHPTQCAYFCENKLR (receptor, phage library variant, format as m9) [TACI_d2 K98T] | – | – | – | – | 6.4 | 8.7
SLSCRKEQGKFYDHLLRDCISCASICGQHPKQCAYFCENALR (receptor, phage library variant, format as m9) [TACI_d2 K107A] | – | – | – | – | 0.9 | 1.1
SLSCRKEQGKFYDHLLRDCISCASICGQHPKQCAYFCETKLR (receptor, phage library variant, format as m9) [TACI_d2 N106T] | – | – | – | – | 1.6 | 1.2
SLSCPKEQGKFYDHLLRDCISCASICGQHPKQCAYFCENKLR (receptor, phage library variant, format as m9) [TACI_d2 R72P] | – | – | – | – | 0.7 | 0.6
SLSCRKEQGKFYDHLLRDCISCASICGQHPKPCAYFCENKLR (receptor, phage library variant, format as m9) [TACI_d2 Q99P] | – | – | – | – | 1.5 | 1.8
SLSCAKEQGKFYDHLLRDCISCASICGQHPKQCAYFCENKLR (receptor, phage library variant, format as m9) [TACI_d2 R72A] | – | – | – | – | 1.1 | 0.4
SLSCRKEPGKFYDHLLRDCISCASICGQHPKQCAYFCENKLR (receptor, phage library variant, format as m9) [TACI_d2 Q75P] | – | – | – | – | 1.1 | 0.8
